Target: S. pneumoniae DNA topoisomerase I (TopoI), purified (S. pneumoniae)

For “histidine-tagged StaR (H6-StaR), product of spr0929 of Streptococcus pneumoniae R6 (natural protein)”, which relaxation of pBR322 by TopoI in vitro (37 °C, 1 h) with increasing StaR concentrations; percent of topoisomers (including OC/RC forms) at the highest StaR concentration (CCC form fell to 2.5%) is on record?
Its relaxation of pBR322 by TopoI in vitro (37 °C, 1 h) with increasing StaR concentrations; percent of topoisomers (including OC/RC forms) at the highest StaR concentration (CCC form fell to 2.5%) is 97.5%.
